This is an account of results in PMC3268725.

Where “and” joins values, the source holds several entries; their conditions need not be identical. Equal values may be shown once.

In this experiment the target is E. coli 70S ribosomes (nontranslating, salt-washed) (E. coli). The experiment is described as follows: co-sedimentation.

“SecYHisEG complex, purified, in detergent (from UniProt P0AGA2;P0AG96;P0AG99)”: the Kd (as a rule, a measure of binding affinity in units of concentration) was determined as 150 nM.

B1: His-tagged YidC, purified (natural protein)
chain: MDSQRNLLVIALLFVSFMIWQAWEQDKNPQPQAQQTTQTTTTAAGSAADQGVPASGQGKLISVKTDVLDLTINTRGGDVEQALLPAYPKELNSTQPFQLLETSPQFIYQAQSGLTGRDGPDNPANGPRPLYNVEKDAYVLAEGQNELQVPMTYTDAAGNTFTKTFVLKRGDYAVNVNYNVQNAGEKPLEISSFGQLKQSITLPPHLDTGSSNFALHTFRGAAYSTPDEKYEKYKFDTIADNENLNISSKGGWVAMLQQYFATAWIPHNDGTNNFYTANLGNGIAAIGYKSQPVLVQPGQTGAMNSTLWVGPEIQDKMAAVAPHLDLTVDYGWLWFISQPLFKLLKWIHSFVGNWGFSIIIITFIVRGIMYPLTKAQYTSMAKMRMLQPKIQAMRERLGDDKQRISQEMMALYKAEKVNPLGGCFPLLIQMPIFLALYYMLMGSVELRQAPFALWIHDLSAQDPYYILPILMGVTMFFIQKMSPTTVTDPMQQKIMTFMPVIFTVFFLWFPSGLVLYYIVSNLVTIIQQQLIYRGLEKRGLHSREKKKS
Consider B1, for which the fold lower affinity than SecY for ribosomes is 5 times lower and 10 times lower.
